For the assay, the target named is T1, hypoxia‐inducible factor 1‐alpha (human (endogenous in PLC5), UniProt Q16665 1-826).
T1 construct: HIF1α, endogenous protein of human HCC cells, immunoprecipitated or blotted with HIF1α antibodies; also called HIF1α
The experiment in a line: co-IP; cells treated with DMSO or SCT‐1015; immunoprecipitation with HIF1α antibodies, blot for PHD3; 400 μg whole‐cell extract, 4 μg antibody overnight at 4 °C, protein A/G magnetic beads. The note with it: partners not purified.

T1 sequence (Q16665 whole entry): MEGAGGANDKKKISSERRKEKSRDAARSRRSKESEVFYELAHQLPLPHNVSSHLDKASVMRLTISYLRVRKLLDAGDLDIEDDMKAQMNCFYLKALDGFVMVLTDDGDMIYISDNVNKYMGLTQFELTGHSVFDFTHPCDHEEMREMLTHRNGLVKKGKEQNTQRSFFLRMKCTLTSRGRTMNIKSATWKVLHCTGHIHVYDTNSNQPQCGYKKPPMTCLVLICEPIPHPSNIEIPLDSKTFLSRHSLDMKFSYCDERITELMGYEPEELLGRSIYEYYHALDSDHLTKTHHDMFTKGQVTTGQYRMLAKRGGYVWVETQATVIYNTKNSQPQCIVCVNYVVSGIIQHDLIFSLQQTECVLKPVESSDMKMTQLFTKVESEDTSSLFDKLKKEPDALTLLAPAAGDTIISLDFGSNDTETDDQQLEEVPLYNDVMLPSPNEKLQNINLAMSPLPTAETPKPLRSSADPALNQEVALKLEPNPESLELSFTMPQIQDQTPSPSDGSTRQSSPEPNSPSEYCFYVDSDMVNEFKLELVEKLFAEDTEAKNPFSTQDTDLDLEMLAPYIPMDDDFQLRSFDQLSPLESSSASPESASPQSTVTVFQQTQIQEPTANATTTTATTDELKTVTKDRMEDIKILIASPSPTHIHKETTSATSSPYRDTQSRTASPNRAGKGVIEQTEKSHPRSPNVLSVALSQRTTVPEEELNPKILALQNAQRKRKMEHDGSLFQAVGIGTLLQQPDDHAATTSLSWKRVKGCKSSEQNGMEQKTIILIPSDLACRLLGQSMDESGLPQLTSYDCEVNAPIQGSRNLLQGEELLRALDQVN

B1: prolyl hydroxylase 3 (enzyme, human (endogenous in HCC cells), UniProt Q9H6Z9 1-239, looked up)
chain: MPLGHIMRLDLEKIALEYIVPCLHEVGFCYLDNFLGEVVGDCVLERVKQLHCTGALRDGQLAGPRAGVSKRHLRGDQITWIGGNEEGCEAISFLLSLIDRLVLYCGSRLGKYYVKERSKAMVACYPGNGTGYVRHVDNPNGDGRCITCIYYLNKNWDAKLHGGILRIFPEGKSFIADVEPIFDRLLFFWSDRRNPHEVQPSYATRYAMTVWYFDAEERAEAKKKFRNLTRKTESALTED
notes: PHD3, endogenous protein detected with the PHD3 antibody (Abcam ab30782) in HIF1α immunoprecipitates; also called PHD3; PHD
With B1, the “fold change of the ratio PHD3/HIF1α in the HIF1α immunoprecipitate, SCT‐1015 against DMSO” value was 1.6 fold.

For the origin of these results see article PMC9168760, “A novel AMPK activator shows therapeutic potential in hepatocellular carcinoma by suppressing HIF1α‐mediated aerobic glycolysis” (Molecular Oncology, 2022).
